The values that follow come from patent US20260209373A1 (TIANJIN MEDICAL UNIVERSITY GENERAL HOSPITAL, published 2026).

Assay [1] deals with T1, human BAFFR on HEK-293T-BAFFR cells (human, UniProt Q96RJ3 1-184).
T1 sequence: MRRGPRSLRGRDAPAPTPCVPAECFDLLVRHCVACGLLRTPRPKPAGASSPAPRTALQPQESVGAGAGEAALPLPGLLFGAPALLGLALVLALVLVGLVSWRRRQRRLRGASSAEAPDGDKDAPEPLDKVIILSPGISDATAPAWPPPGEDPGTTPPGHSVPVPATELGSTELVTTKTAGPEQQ
The assay can be described thus: cell-based or functional assay.

In assay [2] the target is human BAFFR-his protein (Acro, BAR-HP2H6) (human) (UniProt Q96RJ3). Kind of assay: competition ELISA; plate-coated human BAFFR-his, competitor biotin human BAFF his at 0.2 ug/mL. (In general: In an ELISA, binding on a coated surface is turned into a signal by an enzyme label.)
Assay [3] deals with T1, human BAFFR on HEK-293T-BAFFR cells. The assay can be described thus: flow cytometry on HEK-293T-BAFFR cells, anti-human Fc-647 secondary. The procedure:
The cells were resuspended in a suitable volume of staining solution for flow cytometry, so that the final cell concentration per tube reached 2×10⁵ cells/mL.
The antibodies NB467-55, NB467-46, NB467-35, and NB467-8 produced in Example 1, and Lanalumab were respectively diluted to 200 nM. […] After incubation, the cells were washed once with a FACS buffer.
The anti-human FC-647 secondary antibody (Jackson, 109-605-003) was diluted according to the instructions, and 100 μl of the diluted secondary antibody was added to a sample tube. After uniform mixing, the system was incubated at 4° C. for 60 min. After incubation, the cells were washed 3 times with FACS, and the cell precipitate obtained by centrifugation was resuspended in 200 μl of PBS and detected by flow cytometry (Sony, SA3800).

The target in assay [4] is T2, human BAFFR-his protein (Acro, BAR-HP2H6) (human, UniProt Q96RJ3 7-71, limits assumed).
T2 construct: Bought protein; not shown: his tag
T2 sequence: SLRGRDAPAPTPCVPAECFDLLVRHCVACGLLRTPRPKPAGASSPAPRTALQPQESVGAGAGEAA
Kind of assay: competition ELISA; plate-coated human BAFFR-his, competitor biotin human BAFF his at 0.2 ug/mL. The procedure: Specifically, human BAFFR-his protein (Acro, BAR-HP2H6) was added to a 96-well microplate at 200 ng/well and incubated at 4° C. overnight. On the following day, the plate was washed 3 times with PBST. Then the plate was blocked with 5% w/v skim milk in PBST at 37° C. for 1 h, and then washed with PBS.
The antibody to be tested was 1:3 diluted over gradients from a concentration of 800 nM (diluted with 5% skim milk). Biotin Human BAFF his protein (Acro, BAF-H82Q2) was diluted to 0.2 μg/mL. Control group: 50 μL of diluted Biotin Human BAFF his protein and 50 μL of 5% milk. Experimental group: 50 μL of diluted Biotin Human BAFF his protein and 50 μL of antibody diluted over gradients.
Then, the antibody/Biotin Human BAFF his mixture was added to a plate coated with Human BAFFR-his protein, and incubated at 37° C. for 1 h. The plate was washed 5 times with PBST. The secondary antibody (Chengdu NBbiolab Biotechnology Co., Ltd.) 1:10K diluted with a blocking solution was added and incubate at 37° C. for 1 h. The plate incubated with the secondary antibody was washed 5 times with PBST. 100 μl of a TMB monocomponent developing solution was added to each well, and incubated at 37° C. for 7 min. The reaction was terminated with 50 μL/well of 1 M HCL, and then the absorption value at 450 nm was determined. The median inhibition concentration (IC50 value) was obtained by analyzing the data with Graphpad Prism software.

A word on the IC50: it is the concentration needed to halve the response being measured. High values mean weaker potency in that assay, low ones greater potency in that assay. For orientation: EC50 means the concentration needed to bring the measured effect to its halfway point. Higher therefore signals lower potency in that assay. Take Lanalumab (antibody): in assay [1], the EC50 (ng/ml), ADCC reporter assay (Jurkat-NFAT-CD16a luciferase) turned out to be 56.5 ng/mL. Also, the IC50 in assay [2] was found to be 310 nM. The EC50 in assay [3] turned out to be 3.58 nM.

B1: NB467-35 (Fc fusion)
chain: QVQLVESGGGLVQPGGSLRLSCAASGFSLEYYAIGWFRQTPGKEREAISCIDSPAKSTYYADSVKGRFTISRDNSKNTVYLQMNSLKAEDTAVYYCAADVYYRGSYLYRSCNPTESKYWGQGTQVTVSS
notes: also called nanobody NB467-35; anti-BAFFR nanobody; not shown: Human IgG1 Fc fused to the VHH
With B1, the “EC50 (ng/ml), ADCC reporter assay (Jurkat-NFAT-CD16a luciferase)” value (from here on “EC50 (ng/ml), ADCC reporter assay”) in assay [1] came out at 2.67 ng/mL. A half-maximal effect in assay [3] (EC50) was put at 3.24 nM. Further, the IC50 in assay [4] amounted to 5.13 nM.

B2: NB467-55 (Fc fusion)
chain: EVQVVESGGDLVQPGGSLKLSCQASGFSLTYYAIGWFRQAPGKEREEISCISGDGGMTYYADPVKGRFTISRDNGRNTVYLQMNSLKPEDTAVYYCAADVYYNGNYYSRSCNPAESKYWGQGTQVTVSA
notes: also called nanobody NB467-55; anti-BAFFR nanobody; not shown: Human IgG1 Fc fused to the VHH
On to B2, for which the “EC50 (ng/ml), ADCC reporter assay” value in assay [1] worked out at 5.09 ng/mL. This molecule also yielded an EC50 in assay [3] of 1.55 nM. The same molecule came in with an IC50 in assay [4] of 40.5 nM.

B3: NB467-8 (Fc fusion)
chain: QVQLVESGGGLVQPGGSLRLSCAASGFSLEYYAIGWFRHIPGKEREAVSCISSPGDSTWYVDSVKGRFTISRDNAKNTVYLQMNSLKPEDTAVYHCAADVYYSGSYLSRSCNPHESKYWGQGTQVTVSS
notes: also called nanobody NB467-8; anti-BAFFR nanobody; not shown: Human IgG1 Fc fused to the VHH
Consider B3, for which, in assay [1], the “EC50 (ng/ml), ADCC reporter assay” value stood at 2.89 ng/mL. Further, in assay [3], the EC50 came out at 1.76 nM. The molecule further registered an IC50 in assay [4] of 30.5 nM.

B4: NB467-46 (Fc fusion)
chain: EVQVVESGGGLVQPGGSLRLSCAASGFSLTYYAIGWFRQAPGKEREGVACISGGGDQLYYTDSVKGRFTISRDNAKNTVYLHMNSLKPEDTAVYYCAADVYYSGSYNYRSCNPAESKYWGQGTQVTVSS
notes: also called nanobody NB467-46; anti-BAFFR nanobody; not shown: Human IgG1 Fc fused to the VHH
Turning to B4, the “EC50 (ng/ml), ADCC reporter assay” value in assay [1] turned out to be 4.55 ng/mL. Further, a half-maximal response in assay [3] (EC50) required 1.55 nM. In assay [4], this molecule returned a 50% inhibitory concentration (IC50) of 30.5 nM.
